Experimental data taken from the Immune Epitope Database (IEDB).

Experiments:
HLA-A*02:01 [1] = assay: IEDB peptide-MHC binding, purified MHC/competitive/radioactivity; filed as Kd, often an IC50 or EC50 that approximates it; ≥ and ≤ were set here for values at or beyond the usual limits of such assays
HLA-B*40:01 [2] = assay: as above
HLA-B*44:02 = assay: as above
HLA-B*44:03 = assay: as above
HLA-A*02:01 [3] = assay: IEDB peptide-MHC binding, purified MHC/competitive/fluorescence; filed as Kd, often an IC50 or EC50 that approximates it; ≥ and ≤ were set here for values at or beyond the usual limits of such assays
HLA-A*01:01 = assay: IEDB peptide-MHC binding, purified MHC/competitive/radioactivity; filed as Kd, often an IC50 or EC50 that approximates it; ≥ and ≤ were set here for values at or beyond the usual limits of such assays
HLA-A*26:01 = assay: as above
HLA-A*29:02 = assay: as above
HLA-A*30:01 = assay: as above
HLA-A*30:02 = assay: as above
HLA-A*32:01 = assay: as above
HLA-B*48:01 = assay: IEDB peptide-MHC binding, purified MHC/direct/fluorescence; filed as Kd, often an IC50 or EC50 that approximates it; ≥ and ≤ were set here for values at or beyond the usual limits of such assays
HLA-A*23:01 = assay: IEDB peptide-MHC binding, purified MHC/competitive/radioactivity; filed as Kd, often an IC50 or EC50 that approximates it; ≥ and ≤ were set here for values at or beyond the usual limits of such assays
HLA-A*24:02 = assay: as above
HLA-B*51:01 = assay: as above
HLA-B*53:01 = assay: as above; settings: source organism: Dengue virus 2 Jamaica/1409/1983
HLA-B*18:01 = assay: IEDB peptide-MHC binding, purified MHC/direct/fluorescence; filed as Kd, often an IC50 or EC50 that approximates it; ≥ and ≤ were set here for values at or beyond the usual limits of such assays; settings: source organism: Mammarenavirus lassaense
HLA-B*40:01 [4] = assay: as above; settings: source organism: Mammarenavirus lassaense
[5] = source organism: Dengue virus 1 Nauru/West Pac/1974
[6] = source organism: Lassa virus Josiah
[7] = source organism: Mammarenavirus brazilense
[8] = source organism: Dengue virus 2 Jamaica/1409/1983
[9] = source organism: Vaccinia virus WR
[10] = source organism: Dengue virus 4 Philippines/H241/1956
[11] = source organism: Lymphocytic choriomeningitis virus (strain Armstrong)
[12] = source organism: Dengue virus 1 Singapore/S275/1990
[13] = source organism: Mammarenavirus guanaritoense
[14] = source organism: SARS coronavirus Tor2
[15] = source organism: Dengue virus 1 Brazil/97-11/1997
[16] = source organism: Dengue virus 3 Martinique/1243/1999

AACRAAGL
Kd (HLA-A*02:01 [1]; source organism: Hepatitis C virus (isolate 1)): ≥ 50 µM

AEPPFGESYI
Kd (HLA-B*40:01 [2]; [5]): 0.183 µM
Kd (HLA-B*44:02; [5]): 0.596 µM
Kd (HLA-B*44:03; [5]): 0.877 µM

ALFYKDGKL
Kd (HLA-A*02:01 [3]; source organism: Variola major virus): 0.533 µM

ALMEWLKTRPI
Kd (HLA-A*02:01 [3]; source organism: Influenza A virus (A/swine/Hannover/1/1981(H1N1))): 0.0169 µM

ATQPGLTSAV
Kd (HLA-A*02:01 [1]; [6]): ≥ 25 µM

DLFATQPGL
Kd (HLA-A*02:01 [1]; [6]): 12.5 µM

DLKPDNILL
Kd (HLA-A*02:01 [3]; source organism: Plasmodium yoelii yoelii): 0.154 µM

EALRGFLLY
Kd (HLA-A*01:01; [7]): 3.73 µM
Kd (HLA-A*26:01; [7]): 1.58 µM
Kd (HLA-A*29:02; [7]): 0.117 µM
Kd (HLA-A*30:01; [7]): 5.72 µM
Kd (HLA-A*30:02; [7]): 2.27 µM
Kd (HLA-A*32:01; [7]): ≥ 60.2 µM

EEVQVLALEP
Kd (HLA-B*44:03; [8]): ≥ 23.4 µM

ELNAELSDKL
Kd (HLA-A*02:01 [3]; [9]): ≥ 20 µM

ELTLTNTSI
Kd (HLA-A*02:01 [1]; [6]): 12.5 µM

FRKGSSIGK
Kd (HLA-B*48:01; source organism: dengue virus type 1): ≥ 20 µM

IEREIPERSW
Kd (HLA-B*44:02; [10]): 0.0616 µM
Kd (HLA-B*44:03; [10]): 0.649 µM

IPDVIELAY
Kd (HLA-A*01:01; [7]): 5.51 µM
Kd (HLA-A*23:01; [7]): 18.6 µM
Kd (HLA-A*24:02; [7]): ≥ 33.5 µM
Kd (HLA-A*26:01; [7]): ≥ 38.3 µM
Kd (HLA-A*29:02; [7]): 3.15 µM
Kd (HLA-A*30:02; [7]): 2.76 µM

KCWLVTNGSY
Kd (HLA-A*01:01; [11]): 17.3 µM
Kd (HLA-A*23:01; [11]): ≥ 70 µM
Kd (HLA-A*24:02; [11]): ≥ 70.3 µM
Kd (HLA-A*26:01; [11]): ≥ 69.7 µM
Kd (HLA-A*29:02; [11]): 0.937 µM
Kd (HLA-A*30:02; [11]): 0.0274 µM

KEIAETQHG
Kd (HLA-B*44:02; [8]): 0.0621 µM

KEISNMLNI
Kd (HLA-B*40:01 [2]; [12]): 0.191 µM
Kd (HLA-B*44:02; [12]): 0.0746 µM
Kd (HLA-B*44:03; [12]): 0.0687 µM

KMTLFKSIL
Kd (HLA-A*02:01 [3]; [9]): 1.28 µM

LEHGSCVTTM
Kd (HLA-B*40:01 [2]; [8]): 0.0648 µM
Kd (HLA-B*44:03; [8]): 1.08 µM

LFDVIPVSY
Kd (HLA-A*01:01; [13]): 0.613 µM
Kd (HLA-A*26:01; [13]): ≥ 51.9 µM
Kd (HLA-A*29:02; [13]): 0.0673 µM
Kd (HLA-A*30:01; [13]): ≥ 21.1 µM
Kd (HLA-A*30:02; [13]): 1.91 µM
Kd (HLA-A*32:01; [13]): 9.75 µM

LIFRGPNVV
Kd (HLA-A*01:01; [11]): 10.8 µM
Kd (HLA-A*23:01; [11]): 15.4 µM
Kd (HLA-A*24:02; [11]): ≥ 77.5 µM
Kd (HLA-A*26:01; [11]): ≥ 77.9 µM
Kd (HLA-A*29:02; [11]): ≥ 54.7 µM
Kd (HLA-A*30:02; [11]): 9.97 µM

LLMDCSGSI
Kd (HLA-A*02:01 [3]; source organism: Plasmodium falciparum): 0.0013 µM

LLNATDIAVA
Kd (HLA-A*02:01 [1]; source organism: Human immunodeficiency virus 1): 0.427 µM

LPETLETLLL
Kd (HLA-B*51:01; [8]): 11 µM
Kd (HLA-B*53:01): 0.0376 µM

LPLPWAAGA
Kd (HLA-B*51:01; [10]): 1.42 µM

LRWLVERRF
Kd (HLA-B*48:01; source organism: West Nile virus): ≥ 20 µM

LYLYALIYF
Kd (HLA-A*01:01; [14]): 5.16 µM
Kd (HLA-A*23:01; [14]): 7.85e-05 µM
Kd (HLA-A*24:02; [14]): 0.00101 µM
Kd (HLA-A*26:01; [14]): 12.6 µM
Kd (HLA-A*29:02; [14]): 0.000143 µM
Kd (HLA-A*30:02; [14]): ≥ 81.1 µM

MLMPRQKI
Kd (HLA-A*02:01 [3]; source organism: Influenza A virus (A/turkey/Wisconsin/1968(H5N9))): 1.53 µM

MLWTTDKHV
Kd (HLA-A*02:01 [3]; source organism: Human alphaherpesvirus 1 strain 17): 1.29 µM

NAWKVSCTI
Kd (HLA-B*51:01; [8]): 0.0553 µM
Kd (HLA-B*53:01): 0.036 µM

NEAKITDIM
Kd (HLA-B*40:01 [2]; [15]): 0.0831 µM
Kd (HLA-B*44:03; [15]): 4.13 µM

NEGVMAVGL
Kd (HLA-B*40:01 [2]; [16]): 0.226 µM
Kd (HLA-B*44:03; [16]): 1.81 µM

NENDQYIYM
Kd (HLA-B*44:02; [8]): 0.0255 µM
Kd (HLA-B*44:03; [8]): 0.208 µM

NERRAWNFL
Kd (HLA-B*44:03; [10]): 2.09 µM

NMETLNMTM
Kd (HLA-A*02:01 [1]; [6]): 1.39 µM

NVSLVKPTVY
Kd (HLA-A*01:01; [14]): 12.4 µM
Kd (HLA-A*23:01; [14]): ≥ 70 µM
Kd (HLA-A*24:02; [14]): ≥ 70.3 µM
Kd (HLA-A*26:01; [14]): 16.3 µM
Kd (HLA-A*29:02; [14]): 2.41 µM
Kd (HLA-A*30:02; [14]): 1.17 µM

PEDPVEIAL
Kd (HLA-B*18:01): ≥ 20 µM
Kd (HLA-B*40:01 [4]): 0.16 µM
